The series addresses dSpCas9 ::KQ KQ insertion (Streptococcus pyogenes) (UniProt Q99ZW2). The series can be described thus: cell_activity. The following applies: TGG PAM; half the GFP-positive fraction of SpCas9.
Sequence of UniProt Q99ZW2 (Q99ZW2 whole entry): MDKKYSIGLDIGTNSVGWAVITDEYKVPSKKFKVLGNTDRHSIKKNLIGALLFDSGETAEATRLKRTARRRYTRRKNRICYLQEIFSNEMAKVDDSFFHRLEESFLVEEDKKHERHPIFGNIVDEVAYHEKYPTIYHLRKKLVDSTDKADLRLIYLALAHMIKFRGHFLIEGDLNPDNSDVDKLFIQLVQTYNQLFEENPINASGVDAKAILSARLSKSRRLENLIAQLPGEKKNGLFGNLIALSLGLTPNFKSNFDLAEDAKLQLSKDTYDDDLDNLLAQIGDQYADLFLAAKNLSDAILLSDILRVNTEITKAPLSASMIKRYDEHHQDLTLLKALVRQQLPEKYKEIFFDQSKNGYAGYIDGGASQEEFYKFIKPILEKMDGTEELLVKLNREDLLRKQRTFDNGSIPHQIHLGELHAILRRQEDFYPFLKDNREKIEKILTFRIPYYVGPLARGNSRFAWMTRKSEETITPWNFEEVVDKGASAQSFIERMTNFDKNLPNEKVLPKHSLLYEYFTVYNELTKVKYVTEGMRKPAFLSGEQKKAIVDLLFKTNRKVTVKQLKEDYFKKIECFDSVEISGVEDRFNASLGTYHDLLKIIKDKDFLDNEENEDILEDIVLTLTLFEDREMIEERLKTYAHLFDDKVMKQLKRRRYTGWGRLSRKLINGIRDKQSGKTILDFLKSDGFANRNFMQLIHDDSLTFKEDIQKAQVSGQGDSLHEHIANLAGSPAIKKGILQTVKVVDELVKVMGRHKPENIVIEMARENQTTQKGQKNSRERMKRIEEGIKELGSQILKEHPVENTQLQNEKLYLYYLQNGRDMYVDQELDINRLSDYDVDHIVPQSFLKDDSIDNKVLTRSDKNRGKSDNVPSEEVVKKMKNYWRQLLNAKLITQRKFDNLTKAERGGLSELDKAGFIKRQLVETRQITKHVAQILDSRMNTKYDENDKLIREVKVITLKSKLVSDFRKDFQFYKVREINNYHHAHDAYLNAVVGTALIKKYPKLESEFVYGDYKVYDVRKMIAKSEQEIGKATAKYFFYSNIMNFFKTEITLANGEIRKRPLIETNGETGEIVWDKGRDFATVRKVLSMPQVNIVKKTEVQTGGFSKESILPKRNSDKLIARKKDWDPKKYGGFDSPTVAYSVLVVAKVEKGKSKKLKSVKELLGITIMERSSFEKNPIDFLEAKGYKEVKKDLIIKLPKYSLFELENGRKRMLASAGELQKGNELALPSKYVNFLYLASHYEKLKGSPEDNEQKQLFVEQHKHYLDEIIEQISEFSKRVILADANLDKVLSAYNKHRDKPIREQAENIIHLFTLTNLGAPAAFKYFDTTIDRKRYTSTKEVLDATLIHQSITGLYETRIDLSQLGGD

For the sequence “CGAAAGGUUUUGCACUCGAC / CGAAAGGTTTTGCACTCGACTGG / CCAGTCGAGTGCAAAACCTTTCG [PAM-SCANR sgRNA spacer ; PAM-SCANR protospacer + TGG PAM]”, the binding signal (fraction of SpCas9 GFP+ cells) stood at 0.5.

Source of the values: patent publication US20200332271.
